Source: paper PMC4787810 (Nucleic Acids Research, 2015)
Like-named read-outs stand apart in the source and are kept apart here.

Experiments:
[1] = biological target: T1, HpDnaB replicative helicase;HpDnaG helicase-binding domain (HpDnaGHBD) (Helicobacter pylori;Helicobacter pylori …, UniProt O25916;P56064 1-488;415-559, |); test: fluorescence anisotropy
T1 sequence 1: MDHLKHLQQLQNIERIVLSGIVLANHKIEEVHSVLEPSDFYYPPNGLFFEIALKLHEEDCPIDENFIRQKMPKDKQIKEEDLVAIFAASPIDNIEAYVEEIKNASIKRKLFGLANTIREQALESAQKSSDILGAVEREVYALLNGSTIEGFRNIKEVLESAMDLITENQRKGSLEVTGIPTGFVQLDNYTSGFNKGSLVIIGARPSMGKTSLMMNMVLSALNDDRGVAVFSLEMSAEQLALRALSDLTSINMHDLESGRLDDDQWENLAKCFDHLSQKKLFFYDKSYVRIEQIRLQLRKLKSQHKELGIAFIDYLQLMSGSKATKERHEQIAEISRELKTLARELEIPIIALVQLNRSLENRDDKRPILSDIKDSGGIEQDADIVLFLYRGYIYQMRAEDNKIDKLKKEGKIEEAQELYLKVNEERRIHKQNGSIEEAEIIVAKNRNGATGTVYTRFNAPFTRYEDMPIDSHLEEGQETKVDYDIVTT
T1 sequence 2: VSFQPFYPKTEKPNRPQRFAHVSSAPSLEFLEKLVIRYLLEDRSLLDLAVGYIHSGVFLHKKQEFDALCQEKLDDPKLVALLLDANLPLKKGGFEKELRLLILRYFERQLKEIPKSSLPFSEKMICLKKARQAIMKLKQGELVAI

[2] = biological target: T2, HpDnaB replicative helicase (Helicobacter pylori, UniProt O25916 1-488); test: fluorescence anisotropy
T2 sequence: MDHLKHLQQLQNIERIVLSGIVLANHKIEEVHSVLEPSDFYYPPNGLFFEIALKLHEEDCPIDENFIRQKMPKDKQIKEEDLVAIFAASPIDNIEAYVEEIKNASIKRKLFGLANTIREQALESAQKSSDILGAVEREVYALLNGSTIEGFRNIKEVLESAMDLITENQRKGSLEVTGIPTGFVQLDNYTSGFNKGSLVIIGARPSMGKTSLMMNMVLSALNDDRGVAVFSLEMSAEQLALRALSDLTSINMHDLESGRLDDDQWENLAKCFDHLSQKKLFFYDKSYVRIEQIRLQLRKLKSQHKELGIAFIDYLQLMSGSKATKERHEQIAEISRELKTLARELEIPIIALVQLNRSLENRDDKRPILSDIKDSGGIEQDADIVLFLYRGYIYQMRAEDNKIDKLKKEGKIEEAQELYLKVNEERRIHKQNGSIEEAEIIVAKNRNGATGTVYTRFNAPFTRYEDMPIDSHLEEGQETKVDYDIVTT

[3] = biological target: T1, HpDnaB replicative helicase;HpDnaG …; test: fluorescence anisotropy; remark: listed apart in the source
[4] = biological target: T2, HpDnaB replicative helicase; test: fluorescence anisotropy; remark: listed apart in the source
[5] = biological target: T2, HpDnaB replicative helicase; test: fluorescence anisotropy; remark: listed apart in the source
[6] = biological target: T2, HpDnaB replicative helicase; test: fluorescence anisotropy; remark: listed apart in the source
[7] = biological target: the molecule itself; test: SEC-MALS
[8] = biological target: the molecule itself; test: cross-linking

Binder: TTTTTTTTTTTTTTTTTTTT (ssDNA) [20dT]
- Kd [1]: 8.3 ± 0.6 nM
- Kd [2]: 15 ± 1 nM
- Kd [3]: 1 ± 0.1 nM
- Kd [4]: 3.1 ± 0.1 nM

Binder: TTTTTTTTTTTTTTTTTTTTTTTTTTTTTTTTTTTTTTTTTTTTTTTTTT (ssDNA) [50dT]
- Kd [5]: 70 ± 6 nM
- Kd [6]: 1.8 ± 0.2 nM

B1: HpDnaB^L4A (enzyme, Helicobacter pylori, UniProt O25916 1-488, looked up)
chain: MDHAKHLQQLQNIERIVLSGIVLANHKIEEVHSVLEPSDFYYPPNGLFFEIALKLHEEDCPIDENFIRQKMPKDKQIKEEDLVAIFAASPIDNIEAYVEEIKNASIKRKLFGLANTIREQALESAQKSSDILGAVEREVYALLNGSTIEGFRNIKEVLESAMDLITENQRKGSLEVTGIPTGFVQLDNYTSGFNKGSLVIIGARPSMGKTSLMMNMVLSALNDDRGVAVFSLEMSAEQLALRALSDLTSINMHDLESGRLDDDQWENLAKCFDHLSQKKLFFYDKSYVRIEQIRLQLRKLKSQHKELGIAFIDYLQLMSGSKATKERHEQIAEISRELKTLARELEIPIIALVQLNRSLENRDDKRPILSDIKDSGGIEQDADIVLFLYRGYIYQMRAEDNKIDKLKKEGKIEEAQELYLKVNEERRIHKQNGSIEEAEIIVAKNRNGATGTVYTRFNAPFTRYEDMPIDSHLEEGQETKVDYDIVTT
- binding result [7]: binds

B2: HpDnaB^E80A (enzyme, Helicobacter pylori, UniProt O25916 1-488, looked up)
chain: MDHLKHLQQLQNIERIVLSGIVLANHKIEEVHSVLEPSDFYYPPNGLFFEIALKLHEEDCPIDENFIRQKMPKDKQIKEADLVAIFAASPIDNIEAYVEEIKNASIKRKLFGLANTIREQALESAQKSSDILGAVEREVYALLNGSTIEGFRNIKEVLESAMDLITENQRKGSLEVTGIPTGFVQLDNYTSGFNKGSLVIIGARPSMGKTSLMMNMVLSALNDDRGVAVFSLEMSAEQLALRALSDLTSINMHDLESGRLDDDQWENLAKCFDHLSQKKLFFYDKSYVRIEQIRLQLRKLKSQHKELGIAFIDYLQLMSGSKATKERHEQIAEISRELKTLARELEIPIIALVQLNRSLENRDDKRPILSDIKDSGGIEQDADIVLFLYRGYIYQMRAEDNKIDKLKKEGKIEEAQELYLKVNEERRIHKQNGSIEEAEIIVAKNRNGATGTVYTRFNAPFTRYEDMPIDSHLEEGQETKVDYDIVTT
- binding result [7]: binds

B3: HpDnaB^Q8A (enzyme, Helicobacter pylori, UniProt O25916 1-488, looked up)
chain: MDHLKHLAQLQNIERIVLSGIVLANHKIEEVHSVLEPSDFYYPPNGLFFEIALKLHEEDCPIDENFIRQKMPKDKQIKEEDLVAIFAASPIDNIEAYVEEIKNASIKRKLFGLANTIREQALESAQKSSDILGAVEREVYALLNGSTIEGFRNIKEVLESAMDLITENQRKGSLEVTGIPTGFVQLDNYTSGFNKGSLVIIGARPSMGKTSLMMNMVLSALNDDRGVAVFSLEMSAEQLALRALSDLTSINMHDLESGRLDDDQWENLAKCFDHLSQKKLFFYDKSYVRIEQIRLQLRKLKSQHKELGIAFIDYLQLMSGSKATKERHEQIAEISRELKTLARELEIPIIALVQLNRSLENRDDKRPILSDIKDSGGIEQDADIVLFLYRGYIYQMRAEDNKIDKLKKEGKIEEAQELYLKVNEERRIHKQNGSIEEAEIIVAKNRNGATGTVYTRFNAPFTRYEDMPIDSHLEEGQETKVDYDIVTT
- stoichiometry N [8]: 6

B4: HpDnaB^Δ9 (N-terminal deletion mutant starting at residue 10) (domain or fragment, Helicobacter pylori, UniProt O25916 10-488, looked up)
chain: LQNIERIVLSGIVLANHKIEEVHSVLEPSDFYYPPNGLFFEIALKLHEEDCPIDENFIRQKMPKDKQIKEEDLVAIFAASPIDNIEAYVEEIKNASIKRKLFGLANTIREQALESAQKSSDILGAVEREVYALLNGSTIEGFRNIKEVLESAMDLITENQRKGSLEVTGIPTGFVQLDNYTSGFNKGSLVIIGARPSMGKTSLMMNMVLSALNDDRGVAVFSLEMSAEQLALRALSDLTSINMHDLESGRLDDDQWENLAKCFDHLSQKKLFFYDKSYVRIEQIRLQLRKLKSQHKELGIAFIDYLQLMSGSKATKERHEQIAEISRELKTLARELEIPIIALVQLNRSLENRDDKRPILSDIKDSGGIEQDADIVLFLYRGYIYQMRAEDNKIDKLKKEGKIEEAQELYLKVNEERRIHKQNGSIEEAEIIVAKNRNGATGTVYTRFNAPFTRYEDMPIDSHLEEGQETKVDYDIVTT
- stoichiometry N [7]: ~6
- stoichiometry N [8]: 6
